Data reported in patent publication US20170088602A1 (Bristol-Myers Squibb, published 2017).

Experiments:
[1] = biological target: T1, human Activin A (R&D Systems) (human, UniProt P08476 311-426); assay: SPR format A set-up
T1 sequence (looked up): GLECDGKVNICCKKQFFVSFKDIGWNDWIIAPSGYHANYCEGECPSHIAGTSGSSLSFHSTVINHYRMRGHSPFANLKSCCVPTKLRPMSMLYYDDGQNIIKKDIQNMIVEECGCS
Source text: Anti-human Fc antibody (Biacore/GE) was immobilized on a Biacore CM5 chip via NHS/EDC coupling according to the manufacturer's instructions. […] A concentration range of anti-myostatin Adnectin was applied across all flow cells in HBSP running buffer. Regeneration of the chip surface between cycles was accomplished with two 30 second pulses of 3M MgCl₂. Kinetic traces of reference-subtracted sensorgrams were fit to a 1:1 binding model using Biaevaluation software.

[2] = biological target: T2, human myostatin (mature, recombinant; R&D Systems) (human, UniProt O14793 267-375); assay: competitive ELISA: 10 nM myostatin preincubated with soluble ActRIIb-Fc, then binding to plate-coated ActRIIb-Fc detected with biotinylated anti-myostatin polyclonal; % competition
T2 construct: biotinylated in the mRNA display selection; also called GDF-8; mature myostatin
T2 sequence: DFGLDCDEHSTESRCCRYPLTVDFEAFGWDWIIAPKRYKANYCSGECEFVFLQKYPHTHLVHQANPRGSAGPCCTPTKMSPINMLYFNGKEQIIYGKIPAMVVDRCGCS
Protocol: Competitive ELISA: Competitive binding assays to evaluate the ability of anti-myostatin Adnectins to compete with the ActRIIB receptor binding to myostatin were carried out using competitive ELISA. Nunc Maxisorp plates were coated with 2 μg/mL ActRIIb-Fc (R&D Systems) in 0.2M sodium carbonate pH 9.6 buffer overnight at 4° C. After washing with PBS-T (PBS containing 0.05% Tween-20), wells were blocked with OptEIA buffer (BD Biosciences) for 1 h at 25° C. with shaking. Myostatin (10 nM; R&D Systems) was preincubated with a concentration range of Adnectin or ActRIIb-Fc competitor (0.2 pM to 1 μM) in OptEIA buffer for 1 h at 25° C. with shaking. The blocked and coated assay plate was washed with PBS-T, and then myostatin/competitor mixtures were added and incubated for 30 min at 25° C. with shaking. The assay plate was washed with PBS-T, after which bound myostatin was detected with 1:1000 biotinylated goat anti-myostatin polyclonal (R&D Systems) diluted in OptEIA, for 1 h at 25° C. with shaking. After washing with PBS-T, 1:5000 Streptavidin-HRP (Thermo/Pierce) diluted in OptEIA was added, followed by incubation for 30 min at 25° C. with shaking. The assay plate was developed with TMB (BD Biosciences), quenched with 2N sulfuric acid, and absorbance read at A450.

binding result [1]: binds
IC50 (read off the curve) [2]: ~1 nM
B1: ActRIIb-Fc (R&D Systems) (Fc fusion, human, UniProt Q13705 19-134, looked up, not shown: a dimerising Fc or GST)
chain: SGRGEAETRECIYYNANWELERTNQSGLERCEGEQDKRLHCYASWRNSSGTIELVKKGCWLDDFNCYDRQECVATEENPQVYFCCCEGNFCNERFTHLPEAGGPEVTYEPPPTAPT
modifications: Alexa Fluor 647 label in the HTRF assay
notes: also called rhActRIIb-Fc; Human Activin RIIB Fc Chimera
